Sequences and labels used below:
B1: TR4-Fc fusion protein (Fc fusion)
chain: ATIKLHDQSIGTQQWEHSPLGELCPPGSHRSERPGACNRCTEGVGYTNASNNLFACLPCTACKSDEEERSPCTTTRNTACQCKPGTFRNDNSAEMCRKCSTGCPRGMVKVKDCTPWSDIECVHKESGNGHNI
notes: not shown: Fc region
B2: monoclonal antibody 7.1.3 (antibody, V domains shown)
VH: QVQLVQSGAEVKKPGASVKVSCKASGYTFTNYDINWVRQAPGQGLEWMGISAYTGNTNYAQKLQGRVTMTTDTSTSTAYMELRSLRSDDTAVYYCVRDYHDSNGYYYFDYWGQGTLVTVS
VL: DIQMIQSPLSLPVIPGEPASMSCRSSRSLLHSNGNNYLEWYLQKPGQSPQLLIYLGSNRASGVPDRFSGSGSGTDFTLKISRVEAEDVGIYYCMQGLQLPWTFGGTKVIKR

In experiment [1] the target is T1, Biotinylated TRAIL (Homo sapiens (Human), UniProt P50591 114-281, limits assumed, biotinylated (sites not given)). The experiment in a line: competition ELISA, soluble TR4 (TR4-Fc positive control) competing with captured TR4-Fc for biotinylated TRAIL; assay 1. The method, then:
(§1) Goat anti-human Fc was diluted to 0.1 micrograms/ml in coating buffer. The Immulon 4 microplate was coated with 100 microliters per well of the Goat anti-human Fc solution and incubated overnight at 4° C. The coating solution was decanted from the plate, and blocking solution was dispensed at 200 microliters per well. The plate was incubated at room temperature for 1 hour. After the 1 hour incubation period, the blocking solution was decanted from the plate and 1 microgram/mL of TR4-Fc was dispensed at 100 microliters/well and incubated for 2 hours at room temperature. After the incubation, the plate was washed five times manually using a Wheaton manifold.
(§2) Hybridoma supernatants were (previously) prepared in a low binding dilution plate using diluent. The supernatants were prepared in duplicate and were diluted from the stock concentration with 2.5 fold dilutions for the 7 subsequent wells. If a purified form of the antibody was available, the starting concentration was 5 micrograms/mL. The positive control (TR4-Fc) was diluted from 5 micrograms/mL. 100 microliters was transferred into the ELISA plate and pre-incubated for 30 minutes at room temperature. […]
(§3) After the one-hour incubation, the plate was decanted and washed with PBST five times and blotted. […] The plate was immediately read at 450 nm using the spectrometer from Molecular Devices.

Experiment [2] has as its target T1, Biotinylated TRAIL. In words: competition ELISA, soluble TR4 (TR4-Fc positive control) competing with captured TR4-Fc for biotinylated TRAIL; assay 2. The method, then: as §1, §2, §3
The target in experiment [3] is B1. In words: competition ELISA, inhibition of biotinylated TRAIL binding to captured TR4-Fc; assay 2. The method, then: as §1, §2, §3
The target of experiment [4] is B1. In words: competition ELISA, inhibition of biotinylated TRAIL binding to captured TR4-Fc; assay 1. The method, then:
as §1, §2, §3
On the technique in general: ELISA stands for enzyme-linked immunosorbent assay.

T1 sequence (P50591 114-281 limits assumed): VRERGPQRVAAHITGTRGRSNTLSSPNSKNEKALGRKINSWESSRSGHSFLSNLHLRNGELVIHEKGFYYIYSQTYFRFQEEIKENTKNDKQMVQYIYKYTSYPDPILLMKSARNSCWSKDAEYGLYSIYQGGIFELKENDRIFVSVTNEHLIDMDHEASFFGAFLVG

As usually defined, the IC50 is the midpoint of a concentration-inhibition curve. Read a high IC50 as weaker potency in that assay. On to B1, for which the results for the IC50 in experiment [1] and in experiment [2] were 0.491 µg/mL and 0.284 µg/mL, respectively.
With B2, the results for the IC50 in experiment [3] and in experiment [4] were 0.068 µg/mL and 0.152 µg/mL, respectively.

(Values after patent US20070292411A1 (Human Genome Sciences, published 2007).)
